Changes are numbered by the printed parent chain.
What was measured:
Test in all cases: pull-down
[1] = target: GST-tagged FL-importin α7 (human, UniProt O60684 1-536)
[2] = target: T1, GST-tagged FL-importin α3 (RRRR) (human, UniProt O00629 1-521, Q28R)
T1 sequence: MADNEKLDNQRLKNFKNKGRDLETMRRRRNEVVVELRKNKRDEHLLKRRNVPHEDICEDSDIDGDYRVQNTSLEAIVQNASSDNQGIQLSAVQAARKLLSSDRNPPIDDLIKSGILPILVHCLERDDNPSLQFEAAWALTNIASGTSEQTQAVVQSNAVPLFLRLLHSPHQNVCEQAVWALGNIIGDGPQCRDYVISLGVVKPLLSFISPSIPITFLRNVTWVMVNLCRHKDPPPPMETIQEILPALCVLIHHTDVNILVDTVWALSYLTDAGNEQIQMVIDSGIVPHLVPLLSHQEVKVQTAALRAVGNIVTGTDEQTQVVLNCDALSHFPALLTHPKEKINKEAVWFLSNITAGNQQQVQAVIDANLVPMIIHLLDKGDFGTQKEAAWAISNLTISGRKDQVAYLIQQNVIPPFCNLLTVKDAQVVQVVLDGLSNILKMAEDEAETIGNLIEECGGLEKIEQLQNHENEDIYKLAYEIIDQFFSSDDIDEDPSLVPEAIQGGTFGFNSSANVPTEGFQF

[3] = target: GST-tagged FL-importin α1 (mouse, UniProt P52293 1-529)
[4] = target: T2, GST-tagged FL-importin α3 (human, UniProt O00629 1-521)
T2 sequence: T1 sequence with R28Q

B1: MBP-tagged nucleoplasmin NLS (NP-NLS, res. 155-170) (peptide)
chain: KRPAATKKAGQAKKKK
[1]
  percent of importin α bound to cargo: 46%
[2]
  percent of importin α bound to cargo: 27%
[3]
  percent of importin α bound to cargo: 25%
[4]
  percent of importin α bound to cargo: 35%

Source: PMC4346194 (Structure (London, England : 1993), 2015)
